The text below walks through data of doi:10.1101/2025.07.31.667873 (bioRxiv, 2025).

The assay concerns the target SF3B5 (human (endogenous in K562), UniProt Q9BWJ5 1-86). Briefly: cryo-EM structure.

B1: TAF6L (natural protein)
chain: MSEREERRFVEIPRESVRLMAESTGLELSDEVAALLAEDVCYRLREATQNSSQFMKHTKRRKLTVEDFNRALRWSSVEAVCGYGSQEALPMRPAREGELYFPEDREVNLVELALATNIPKGCAETAVRVHVSYLDGKGNLAPQGSVPSAVSSLTDDLLKYYHQVTRAVLGDDPQLMKVALQDLQTNSKIGALLPYFVYVVSGVKSVSHDLEQLHRLLQVARSLFRNPHLCLGPYVRCLVGSVLYCVLEPLAASINPLNDHWTLRDGAALLLSHIFWTHGDLVSGLYQHILLSLQKILADPVRPLCCHYGAVVGLHALGWKAVERVLYPHLSTYWTNLQAVLDDYSVSNAQVKADGHKVYGAILVAVERLLKMKAQAAEPNRGGPGGRGCRRLDDLPWDSLLFQESSSGGGAEPSFGSGLPLPPGGAGPEDPSLSVTLADIYRELYAFFGDSLATRFGTGQPAPTAPRPPGDKKEPAAAPDSVRKMPQLTASAIVSPHGDESPRGSGGGGPASASGPAASESRPLPRVHRARGAPRQQGPGTGTRDVFQKSRFAPRGAPHFRFIIAGRQAGRRCRGRLFQTAFPAPYGPSPASRYVQKLPMIGRTSRPARRWALSDYSLYLPL
B1: the binding result is given as “binds”.
